From the Human Domainome abundance scans (Beltran et al. 2025)
± gives the uncertainty stated by the source.

assay: abundance fitness (aPCA) (normalised: wild type 0, dead -1); higher = more abundant; growth selection in yeast, the domain comes from the species named; conditions: Homo sapiens

| Substance | abundance fitness |
| --- | --- |
| Scaffold attachment factor B1 V48C, Q15424 | -0.133 ± 0.07 |
| Scaffold attachment factor B1 R40K, Q15424 | -0.416 ± 0.079 |
| Scaffold attachment factor B1 V48D, Q15424 | -0.768 ± 0.11 |
| Scaffold attachment factor B1 A64H, Q15424 | -0.132 ± 0.082 |
| Scaffold attachment factor B1 R44L, Q15424 | -0.107 ± 0.053 |
| Scaffold attachment factor B1 I77L, Q15424 | -0.227 ± 0.064 |
| Scaffold attachment factor B1 D49L, Q15424 | -0.393 ± 0.061 |
| Scaffold attachment factor B1 K45A, Q15424 | -0.013 ± 0.27 |
| Scaffold attachment factor B1 A41V, Q15424 | -0.105 ± 0.053 |
| Scaffold attachment factor B1 P72E, Q15424 | -0.302 ± 0.068 |
| Scaffold attachment factor B1 L61Y, Q15424 | -0.351 ± 0.072 |
| Scaffold attachment factor B1 K62H, Q15424 | -0.211 ± 0.066 |
| Scaffold attachment factor B1 I75K, Q15424 | -0.253 ± 0.06 |
| Scaffold attachment factor B1 L39N, Q15424 | -0.87 ± 0.066 |
| Scaffold attachment factor B1 D49K, Q15424 | -0.275 ± 0.072 |
| Scaffold attachment factor B1 R30M, Q15424 | -0.206 ± 0.077 |
| Scaffold attachment factor B1 S32E, Q15424 | -0.419 ± 0.11 |
| Scaffold attachment factor B1 D33A, Q15424 | -0.303 ± 0.049 |
| Scaffold attachment factor B1 K63F, Q15424 | -0.432 ± 0.061 |
| Scaffold attachment factor B1 E76T, Q15424 | -0.195 ± 0.073 |
| Scaffold attachment factor B1 T78I, Q15424 | -0.17 ± 0.069 |
| Scaffold attachment factor B1 A64C, Q15424 | -0.016 ± 0.077 |

| Substance | abundance fitness |
| --- | --- |
| Scaffold attachment factor B1 S32Y, Q15424 | -0.331 ± 0.082 |
| Scaffold attachment factor B1 S50P, Q15424 | -0.191 ± 0.058 |
| Scaffold attachment factor B1 T78Y, Q15424 | -0.173 ± 0.075 |
| Scaffold attachment factor B1 E66P, Q15424 | -0.909 ± 0.097 |
| Scaffold attachment factor B1 N47E, Q15424 | -0.168 ± 0.074 |
| Scaffold attachment factor B1 I65A, Q15424 | -0.596 ± 0.069 |
| Scaffold attachment factor B1 L31P, Q15424 | -0.748 ± 0.071 |
| Scaffold attachment factor B1 T28P, Q15424 | -0.348 ± 0.07 |
| Scaffold attachment factor B1 E74D, Q15424 | -0.312 ± 0.074 |
| Scaffold attachment factor B1 K63L, Q15424 | -0.237 ± 0.044 |
| Scaffold attachment factor B1 R29G, Q15424 | -0.18 ± 0.049 |
| Scaffold attachment factor B1 D67N, Q15424 | -0.125 ± 0.091 |
| Scaffold attachment factor B1 R46C, Q15424 | -0.445 ± 0.1 |
| Scaffold attachment factor B1 E42R, Q15424 | -0.903 ± 0.053 |
| Scaffold attachment factor B1 L43E, Q15424 | -0.761 ± 0.08 |
| Scaffold attachment factor B1 R44D, Q15424 | -0.156 ± 0.1 |
| Scaffold attachment factor B1 S32T, Q15424 | -0.217 ± 0.089 |
| Scaffold attachment factor B1 R29N, Q15424 | -0.408 ± 0.1 |
| Scaffold attachment factor B1 A41I, Q15424 | -0.114 ± 0.073 |
| Scaffold attachment factor B1 L31D, Q15424 | -0.498 ± 0.075 |
| Scaffold attachment factor B1 V36R, Q15424 | -0.258 ± 0.052 |
| Scaffold attachment factor B1 G70C, Q15424 | -0.259 ± 0.058 |

| Substance | abundance fitness |
| --- | --- |
| Scaffold attachment factor B1 L34G, Q15424 | -0.576 ± 0.056 |
| Scaffold attachment factor B1 K63C, Q15424 | -0.234 ± 0.048 |
| Scaffold attachment factor B1 D67I, Q15424 | -0.257 ± 0.079 |
| Scaffold attachment factor B1 S51C, Q15424 | -0.217 ± 0.07 |
| Scaffold attachment factor B1 R40C, Q15424 | -0.642 ± 0.085 |
| Scaffold attachment factor B1 L34M, Q15424 | -0.067 ± 0.083 |
| Scaffold attachment factor B1 E66C, Q15424 | -0.284 ± 0.069 |
| Scaffold attachment factor B1 M58N, Q15424 | -0.37 ± 0.097 |
| Scaffold attachment factor B1 E74I, Q15424 | -0.215 ± 0.086 |
| Scaffold attachment factor B1 G27E, Q15424 | -0.068 ± 0.062 |
| Scaffold attachment factor B1 V48N, Q15424 | -0.362 ± 0.11 |
| Scaffold attachment factor B1 G52V, Q15424 | -0.978 ± 0.059 |
| Scaffold attachment factor B1 V36D, Q15424 | -0.125 ± 0.068 |
| Scaffold attachment factor B1 S79C, Q15424 | -0.286 ± 0.077 |
| Scaffold attachment factor B1 D33I, Q15424 | -0.88 ± 0.12 |
| Scaffold attachment factor B1 S32F, Q15424 | -0.344 ± 0.083 |
| Scaffold attachment factor B1 V48F, Q15424 | -0.157 ± 0.085 |
| Scaffold attachment factor B1 N71Y, Q15424 | -0.448 ± 0.094 |
| Scaffold attachment factor B1 N53D, Q15424 | -0.038 ± 0.068 |
| Scaffold attachment factor B1 L57W, Q15424 | -1.37 ± 0.1 |
| Scaffold attachment factor B1 I65P, Q15424 | -0.559 ± 0.051 |
| Scaffold attachment factor B1 D33E, Q15424 | -0.209 ± 0.078 |

| Substance | abundance fitness |
| --- | --- |
| Scaffold attachment factor B1 K63Q, Q15424 | -0.085 ± 0.079 |
| Scaffold attachment factor B1 E68H, Q15424 | -0.359 ± 0.057 |
| Scaffold attachment factor B1 L43Y, Q15424 | -1.22 ± 0.07 |
| Scaffold attachment factor B1 R60N, Q15424 | -0.326 ± 0.11 |
| Scaffold attachment factor B1 V48T, Q15424 | -0.254 ± 0.083 |
| Scaffold attachment factor B1 K62P, Q15424 | -0.728 ± 0.065 |
| Scaffold attachment factor B1 V56T, Q15424 | -0.202 ± 0.069 |
| Scaffold attachment factor B1 S32C, Q15424 | -0.32 ± 0.077 |
| Scaffold attachment factor B1 L57R, Q15424 | -0.754 ± 0.054 |
| Scaffold attachment factor B1 P72K, Q15424 | -0.423 ± 0.091 |
| Scaffold attachment factor B1 E74Y, Q15424 | -0.226 ± 0.09 |
| Scaffold attachment factor B1 S79W, Q15424 | -0.409 ± 0.087 |
| Scaffold attachment factor B1 T28S, Q15424 | -0.183 ± 0.055 |
| Scaffold attachment factor B1 R30V, Q15424 | -0.493 ± 0.052 |
| Scaffold attachment factor B1 L43W, Q15424 | -1.09 ± 0.083 |
| Scaffold attachment factor B1 N53S, Q15424 | -0.085 ± 0.051 |
| Scaffold attachment factor B1 E42H, Q15424 | -0.686 ± 0.12 |
| Scaffold attachment factor B1 G52Q, Q15424 | -0.781 ± 0.066 |
| Scaffold attachment factor B1 R46N, Q15424 | -0.819 ± 0.15 |
| Scaffold attachment factor B1 I65S, Q15424 | -0.577 ± 0.058 |
| Scaffold attachment factor B1 I75S, Q15424 | -0.257 ± 0.056 |
| Scaffold attachment factor B1 T78F, Q15424 | -0.323 ± 0.1 |

| Substance | abundance fitness |
| --- | --- |
| Scaffold attachment factor B1 R60I, Q15424 | -0.551 ± 0.11 |
| Scaffold attachment factor B1 G27M, Q15424 | -0.09 ± 0.11 |
| Scaffold attachment factor B1 L39D, Q15424 | -1.12 ± 0.13 |
| Scaffold attachment factor B1 K54V, Q15424 | -0.221 ± 0.049 |
| Scaffold attachment factor B1 E66V, Q15424 | -0.244 ± 0.05 |
| Scaffold attachment factor B1 S79E, Q15424 | -0.288 ± 0.097 |
| Scaffold attachment factor B1 D73E, Q15424 | -0.072 ± 0.067 |
| Scaffold attachment factor B1 I77W, Q15424 | -0.119 ± 0.053 |
| Scaffold attachment factor B1 A64D, Q15424 | -0.601 ± 0.11 |
| Scaffold attachment factor B1 T26G, Q15424 | -0.304 ± 0.071 |
| Scaffold attachment factor B1 M58S, Q15424 | -0.16 ± 0.064 |
| Scaffold attachment factor B1 S55H, Q15424 | -0.291 ± 0.091 |
| Scaffold attachment factor B1 E76R, Q15424 | -0.055 ± 0.054 |
| Scaffold attachment factor B1 L39C, Q15424 | -0.745 ± 0.074 |
| Scaffold attachment factor B1 S79Y, Q15424 | -0.286 ± 0.078 |
| Scaffold attachment factor B1 S51W, Q15424 | -0.55 ± 0.088 |
| Scaffold attachment factor B1 D33T, Q15424 | -0.308 ± 0.077 |
| Scaffold attachment factor B1 N71E, Q15424 | -0.36 ± 0.072 |
| Scaffold attachment factor B1 I75G, Q15424 | -0.264 ± 0.057 |
| Scaffold attachment factor B1 S55L, Q15424 | -0.147 ± 0.049 |
| Scaffold attachment factor B1 E76Y, Q15424 | -0.175 ± 0.056 |
| Scaffold attachment factor B1 R44H, Q15424 | -0.202 ± 0.072 |
